Measured values from patent publication US20190062438A1 (CSL, published 2019).
Read-outs that look alike come from different tables or passages of the source. One block for each binder: values may come before it.

Key:
[1] = molecular target: T1, human CD131 (human, UniProt P32927 17-897); experiment: saturation binding of radio-iodinated antibody to cells; row 'Average for all cells (±SEM)' (neutrophils, eosinophils, TF1 cells)
T1 construct: on transfected FS293F cells, TF-1 cells, human neutrophils and eosinophils, there together with the cytokine-specific alpha chains; also called hCD131; βc
T1 sequence: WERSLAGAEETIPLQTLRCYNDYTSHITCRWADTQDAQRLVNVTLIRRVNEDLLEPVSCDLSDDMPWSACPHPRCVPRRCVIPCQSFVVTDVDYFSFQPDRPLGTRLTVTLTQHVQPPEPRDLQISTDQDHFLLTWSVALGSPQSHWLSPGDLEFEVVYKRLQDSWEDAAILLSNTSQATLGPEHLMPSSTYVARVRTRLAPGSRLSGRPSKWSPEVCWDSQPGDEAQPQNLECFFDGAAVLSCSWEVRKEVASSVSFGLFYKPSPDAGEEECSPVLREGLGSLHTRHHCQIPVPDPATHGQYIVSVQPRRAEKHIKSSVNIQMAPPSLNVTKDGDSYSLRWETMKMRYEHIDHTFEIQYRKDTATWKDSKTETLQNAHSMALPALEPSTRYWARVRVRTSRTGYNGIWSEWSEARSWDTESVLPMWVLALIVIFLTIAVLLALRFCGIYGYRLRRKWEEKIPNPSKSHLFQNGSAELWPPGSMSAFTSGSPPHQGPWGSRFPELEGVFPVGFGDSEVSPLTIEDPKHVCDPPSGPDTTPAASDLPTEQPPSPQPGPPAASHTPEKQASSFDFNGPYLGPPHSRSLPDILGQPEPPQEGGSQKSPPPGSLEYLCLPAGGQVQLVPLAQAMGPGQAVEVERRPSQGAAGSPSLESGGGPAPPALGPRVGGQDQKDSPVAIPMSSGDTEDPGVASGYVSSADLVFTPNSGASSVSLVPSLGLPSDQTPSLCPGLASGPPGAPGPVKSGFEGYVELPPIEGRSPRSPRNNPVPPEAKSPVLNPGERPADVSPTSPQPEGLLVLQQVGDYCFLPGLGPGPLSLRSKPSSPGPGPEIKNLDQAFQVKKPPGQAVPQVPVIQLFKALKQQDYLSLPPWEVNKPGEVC

[2] = molecular target: T1, human CD131; experiment: saturation binding of radio-iodinated IgG on human eosinophils
Description: (§1) Each point is the mean of duplicate determinations of cell-bound radio-iodinated antibody after subtraction of non-specific binding. Data from a single neutrophil binding experiment and a representative eosinophil binding experiment, n=2 is shown.
(§2) Cytokines and antibodies were radio-iodinated using Pierce Pre-Coated Iodination tubes (Thermo Scientific) according to the manufacturer's instructions. MAb binding to cells expressing hβc was determined by incubating 1-2×10⁶ cells with radio-iodinated mAb at a range of concentrations at 23° C. for 1-2 hours with gentle mixing. Cell suspensions were then centrifuged through fetal calf serum (FCS) and radioactivity associated with the cells pellets was assessed by counting in a Wizard² 2470 Automatic Gamma Counter (Perkin Elmer, Rowville, VIC, Australia). Non-specific binding was assessed for each radio-iodinated mAb in the presence of at least a 500-fold excess of unlabeled mAb. […] Competition binding assays were performed essentially as previously described (41). Briefly 1-2×10⁶ cells were incubated with mAb or cytokine competitor at a range of concentrations at 4° C. for 45 minutes with gentle mixing. […] Cell suspensions were then centrifuged through FCS and radioactivity associated with the cells pellets assessed by counting.

[3] = molecular target: T1, human CD131; experiment: competition binding on purified human eosinophils: cells pre-incubated with the antibody, then equilibrated with 340 pM radio-iodinated IL-3; cell-bound c.p.m.
Description: (§3) Each point is the mean of duplicate determinations of cell-bound radioiodinated cytokine and error bars represent the standard deviation.
(§4) Cytokines and antibodies were radio-iodinated using Pierce Pre-Coated Iodination tubes (Thermo Scientific) according to the manufacturer's instructions. MAb binding to cells expressing hβc was determined by incubating 1-2×10⁶ cells with radio-iodinated mAb at a range of concentrations at 23° C. for 1-2 hours with gentle mixing. Cell suspensions were then centrifuged through fetal calf serum (FCS) and radioactivity associated with the cells pellets was assessed by counting in a Wizard² 2470 Automatic Gamma Counter (Perkin Elmer, Rowville, VIC, Australia). Non-specific binding was assessed for each radio-iodinated mAb in the presence of at least a 500-fold excess of unlabeled mAb. […] Competition binding assays were performed essentially as previously described (41). Briefly 1-2×10⁶ cells were incubated with mAb or cytokine competitor at a range of concentrations at 4° C. for 45 minutes with gentle mixing. Radio-iodinated cytokine or mAb was then added and the mixture incubated at 23° C. for a further 1-2 hours with gentle mixing. Cell suspensions were then centrifuged through FCS and radioactivity associated with the cells pellets assessed by counting.

[4] = molecular target: T1, human CD131; experiment: saturation binding of radio-iodinated antibody to TF1 cells (second of three values in the cell)
Description: as §4

[5] = molecular target: T1, human CD131; experiment: saturation binding of radio-iodinated antibody to TF1 cells (first of three values in the cell)
Description: as §4

[6] = molecular target: T1, human CD131; experiment: saturation binding of radio-iodinated antibody to TF1 cells (third of three values in the cell)
Description: as §4

[7] = molecular target: T1, human CD131; experiment: cell-based or functional assay
[8] = molecular target: T1, human CD131; experiment: cell-based or functional assay; remark: listed apart in the source
[9] = molecular target: T1, human CD131; experiment: saturation binding of radio-iodinated antibody to human eosinophils (first of two values in the cell)
Description: as §1, §2

[10] = molecular target: T1, human CD131; experiment: competition binding on purified human eosinophils: cells pre-incubated with the antibody, then equilibrated with 200 pM radio-iodinated IL-5; cell-bound c.p.m.
Description: as §3, §4

[11] = molecular target: T1, human CD131; experiment: saturation binding of radio-iodinated IgG on human neutrophils
Description: as §1, §2

[12] = molecular target: T1, human CD131; experiment: saturation binding of radio-iodinated antibody to human eosinophils (second of two values in the cell)
Description: as §1, §2

[13] = molecular target: T2, human GM-CSFR α-chain (human, UniProt P15509 23-400); experiment: flow cytometry, transiently transfected cells
T2 construct: whole, on cells; also called GMRα
T2 sequence (looked up): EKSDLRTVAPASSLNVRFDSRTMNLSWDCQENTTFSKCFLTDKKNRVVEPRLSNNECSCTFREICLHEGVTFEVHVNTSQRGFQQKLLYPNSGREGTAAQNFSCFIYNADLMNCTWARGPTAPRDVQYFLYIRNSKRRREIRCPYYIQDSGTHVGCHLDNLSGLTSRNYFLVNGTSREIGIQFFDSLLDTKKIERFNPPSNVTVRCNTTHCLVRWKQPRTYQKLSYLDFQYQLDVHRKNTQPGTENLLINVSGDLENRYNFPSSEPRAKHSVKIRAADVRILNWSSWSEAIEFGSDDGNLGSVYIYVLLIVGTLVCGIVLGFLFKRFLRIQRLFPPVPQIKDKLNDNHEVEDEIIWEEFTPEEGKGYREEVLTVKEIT

[14] = molecular target: T3, human IL-5R α-chain (human, UniProt Q01344 21-420); experiment: flow cytometry, transiently transfected cells
T3 construct: also called Hu-IL5R α chain isoform 1
T3 sequence: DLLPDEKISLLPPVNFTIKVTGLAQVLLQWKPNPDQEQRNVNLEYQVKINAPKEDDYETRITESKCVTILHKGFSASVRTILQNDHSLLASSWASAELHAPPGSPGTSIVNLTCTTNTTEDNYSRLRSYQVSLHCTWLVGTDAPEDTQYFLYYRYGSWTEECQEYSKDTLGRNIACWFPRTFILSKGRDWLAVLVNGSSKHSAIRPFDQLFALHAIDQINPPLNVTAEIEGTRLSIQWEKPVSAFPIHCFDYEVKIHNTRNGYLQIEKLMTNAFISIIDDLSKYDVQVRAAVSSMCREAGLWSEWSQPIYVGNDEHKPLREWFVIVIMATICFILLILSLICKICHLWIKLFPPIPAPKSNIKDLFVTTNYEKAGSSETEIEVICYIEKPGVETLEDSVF

[15] = molecular target: T4, human IL-3R α-chain (human, UniProt P26951 19-378); experiment: flow cytometry, transiently transfected cells
T4 construct: also called Hu-IL3R α chain
T4 sequence (P26951 19-378 limits assumed): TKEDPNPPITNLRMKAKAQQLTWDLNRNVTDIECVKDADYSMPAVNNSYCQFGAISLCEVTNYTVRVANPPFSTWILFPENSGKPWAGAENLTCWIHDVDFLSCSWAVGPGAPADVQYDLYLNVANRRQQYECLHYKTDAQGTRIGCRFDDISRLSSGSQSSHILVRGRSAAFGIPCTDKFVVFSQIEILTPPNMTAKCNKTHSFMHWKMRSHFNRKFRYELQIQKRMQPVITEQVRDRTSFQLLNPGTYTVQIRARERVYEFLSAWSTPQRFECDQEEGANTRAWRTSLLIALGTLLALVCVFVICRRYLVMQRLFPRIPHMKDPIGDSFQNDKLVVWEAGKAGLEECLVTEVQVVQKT

[16] = molecular target: T1, human CD131; experiment: cell-based or functional assay; remark: listed apart in the source

Kd [1]: 0.426 nM
Kd [2]: 0.629 nM
IC50 (read off the curve) [3]: ~0.007 nM
Kd [4]: 0.303 nM
Kd [5]: 0.361 nM
Kd [6]: 0.393 nM
IC50 GM-CSF, TF-1 proliferation [7]: 0.29 nM
IC50 IL-3, TF-1 proliferation [8]: 0.144 nM
IC50 IL-5, TF-1 proliferation [8]: 4.67 nM
fold improvement of IC50 GM-CSF over parental 9A2 [8]: 1570 fold
fold improvement of IC50 IL-3 over parental 9A2 [8]: 41 fold
fold improvement of IC50 IL-5 over parental 9A2 [8]: 310 fold
Kd [9]: 0.73 nM
IC50 (read off the curve) [10]: ~0.3 nM
Kd [11]: 0.246 nM
Kd [12]: 0.528 nM
B1: 9A2-VR24.29 (antibody, V domains shown)
VH: EVQLLESGGGLVQPGGSLRLSCAASGFTFPWYRVHWVRQAPGKGLEWVSSIRSSGGFPYYNYKVKGRFTISRDNSKNTLYLQMNSLRAEDTAVYYCARFYDSFFDIWGQGTMVTVSS
VL: DIQMTQSPSSVSASVGDRVTITCRASQGISSWLAWYQQKPGKAPKLLIYAASSLQSGVPSRFSGSGSGTDFTLTISSLQPEDFATYYCQQANSFPITFGQGTRLEIKR
notes: IgG4pK; also called 9A2-VR24.29 IgG

binding result [13]: no binding
binding result [14]: no binding
binding result [15]: no binding
IC50 GM-CSF, TF-1 proliferation [16]: 456 nM
IC50 IL-3, TF-1 proliferation [16]: 5.96 nM
IC50 IL-5, TF-1 proliferation [16]: 1450 nM
pStat5 IC50 GM-CSF, TF-1 bla reporter [16]: 40 nM
pStat5 IC50 IL-3, TF-1 bla reporter [16]: 7.3 nM
B2: 9A2 (antibody, IgG4, V domains shown)
VH: EVQLLESGGGLVQPGGSLRLSCAASGFTFSHYHMLWVRQAPGKGLEWVSSIRSSGGFTYYADSVKGRFTISRDNSKNTLYLQMNSLRAEDTAVYYCARFYDSFFDIWGQGTMVTVSS
VL: DIQMTQSPSSVSASVGDRVTITCRASQGISSWLAWYQQKPGKAPKLLIYAASSLQSGVPSRFSGSGSGTDFTLTISSLQPEDFATYYCQQANSFPITFGQGTRLEIKR
notes: IgG4pK (IgG4 S241P, kappa); also called parental 9A2
